Reference: publication PMC9116965 (iScience, 2022)

Experiments:
SARS-CoV RBD protein = SARS-CoV RBD protein (Severe acute respiratory syndrome …, UniProt P59594); assay: cell-based or functional assay
[1] = biological target: T1, SARS-CoV-2 WT RBD protein (SARS-CoV-2 (WT), UniProt P0DTC2); assay: SPR
[2] = biological target: T1, SARS-CoV-2 WT RBD protein; assay: ELISA

B1: STS165 (full-length IgG form) (antibody, V domains shown)
VH: EVQLVESGGGVVRPGGSLRLSCAASGFTFDDYGMSWVRQAPGKGLEWVSGINWNGGSTGYADSVKGRFTISRDNAKNSLYLQMNSLRAEDTALYHCARVGYCGGDCYSLSLAGFPDYWGQGTLVTVSS
VL: not shown
pseudovirus neutralisation of SARS-CoV, IC50 (HEK-293T-hACE2 cells, luciferase) (SARS-CoV RBD protein): 2.09 µg/mL

B2: STS165 Fab form (Fab, V domains shown)
VH: B1 VH
VL: not shown
fold decrease of binding affinity against the IgG form [1]: > 50 fold

B3: S2A4 (antibody, V domains shown)
VH: EVQLVESGGGLVQPGGSLRLSCAASGFTFSSYWMNWVRQAPGKGLEWVANIKQDGSEKYYVDSVKGRFTISRDNAKNSLFLQMNSLRAEDTAVYYCARVWWLRGSFDYWGQGTLVTVSS
VL: NFMLTQPHSVSESPGKTVTISCTGSSGSIASNYVQWYQQRPGSAPTTVIYEDNQRPSGVPDRFSGSIDSSSNSASLTISGLKTEDEADYYCQSYDSSNHVVFGGGTKLTVL
binding result [2]: binds

B4: H014 (antibody, V domains shown)
VH: EVQLVQSGAEVKKPGATVKISCKVSGYSFSNYYIHWVKQAPGKSLEWIGYIDPFNGGTSDNLKFKGAATLTADTSTDTAYMELSSLRSEDTAVYYCARSEYDPYYVMDYWGQGTTVTVSS
VL: IVLTQSPFQSVSPKEKVTITCRASQSISSNLHWYQQKPDQSPKLLIKYASQSISGIPSRFSGSGSGTDFTLTINSLEAEDFGIYFCQQTNFWPYIFGQGTKLEIL
binding result [2]: binds

B5: EY6A (antibody, V domains shown)
VH: EVQLVESGGGVVQPGRSLRLSCAASAFTFSSYDMHWVRQAPGKGLEWVAVISYDGSNKYYADSVKGRFTISRDNSKNTLYLQMNSLRAEDTAVYYCAKDGGKLWVYYFDYWGQGTLVTVSS
VL: not shown
binding result [2]: binds
